Measured values from article PMC9507130.

These substances were tested against Vin1^1-116-mScI (UniProt P36158) (assay: subcellular recruitment assay (fluorescence microscopy, puncta quantification)). Details: vrl1 vin1Δ cells; over-expressed Vrl1(1-703)YPE chimera; pVIN1(1-116)-mScI; n=3, cells/strain/replicate ≥863; parent: est. 0.82; read off a plot.
UniProt P36158, sequence (P36158 1-116): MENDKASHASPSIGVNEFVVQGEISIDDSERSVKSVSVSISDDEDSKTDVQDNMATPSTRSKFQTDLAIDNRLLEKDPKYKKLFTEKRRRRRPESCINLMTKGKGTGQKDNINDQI

other: Average Bright Vin1(1-116)-mScI Puncta Per Cell (puncta per cell) | Substance
0.14 | Vrl1(1-703)^YPE (from UniProt P38815) D511K
0.075 | Vrl1(1-703)^YPE (from UniProt P38815) E504A; E510A; D511A; N546A; E551A
0.04 | Vrl1(1-703)^YPE (from UniProt P38815) E510R
